From patent US9533055 (ARMAGEN TECHNOLOGIES, dated 2017)

Target: T1, HIR extracellular domain (ECD) (human, UniProt P06213 28-956, limits assumed)
T1 construct: extracellular domain; also called HIR ECD; human insulin receptor ECD
Assay: ELISA, plated HIR ECD, biotinylated goat anti-human IgG detection
Procedure: The affinity of the fusion protein for the HIR extracellular domain (ECD) was determined with an ELISA using the lectin affinity purified HIR ECD. CHO cells permanently transfected with the HIR ECD were grown in serum free media (SFM), and the HIR ECD was purified with a wheat germ agglutinin affinity column. The HIR ECD (0.2 μg/well) was plated on Immulon 2 high binding 96-well plates, and the binding of the chimeric HIRMAb, the HIRMAb-TNFR fusion protein, or human IgG1 to the HIR ECD was detected with a biotinylated goat anti-human IgG (H+L) antibody (0.3 μg/well), and the avidin biotinylated peroxidase detection system.

EC50: 0.44 nM
B1: chimeric HIRMAb (antibody, V domains shown)
VH: QVQLQQSGPELVKPGALVKISCKASGYTFTNYDIHWVKQRPGQGLEWIGWIYPGDGSTKYNEKFKGKATLTADKSSSTAYMHLSSLTSEKSAVYFCAREWAYWGQGTLVTVSA
VL: DIQMTQSPSSLSASLGERVSLTCRASQDIGGNLYWLQQGPDGTIKRLIYATSSLDSGVPKRFSGSRSGSDYSLTISSLESEDFVDYYCLQYSSSPWTFGGGTKMEIKR
notes: Human IgG1/kappa constant regions; also called MAb to HIR
